In US20120100139A1 (APTEVO RESEARCH AND DEVELOPMENT, published 2012):
One block for each molecule: values may come before it.

What was measured:
[1] = target: CD86-mIgG (Ancell, Inc) (UniProt P42081); test: SPR (BIAcore T100), CD86-mIgG immobilized on CM5; first site
[2] = target: CD86-mIgG (Ancell, Inc) (UniProt P42081); test: SPR (BIAcore T100), CD86-mIgG immobilized on CM5; steady-state equilibrium fit
[3] = target: CD86-mIgG (Ancell, Inc) (UniProt P42081); test: SPR (BIAcore T100), CD86-mIgG immobilized on CM5; second site
[4] = target: T1, CD86-mIgG (Ancell, Inc) (UniProt P42081 24-247, limits assumed); test: SPR, CD86-mIgG immobilized; reference of the comparison
T1 construct: Bought reagent
T1 sequence (looked up): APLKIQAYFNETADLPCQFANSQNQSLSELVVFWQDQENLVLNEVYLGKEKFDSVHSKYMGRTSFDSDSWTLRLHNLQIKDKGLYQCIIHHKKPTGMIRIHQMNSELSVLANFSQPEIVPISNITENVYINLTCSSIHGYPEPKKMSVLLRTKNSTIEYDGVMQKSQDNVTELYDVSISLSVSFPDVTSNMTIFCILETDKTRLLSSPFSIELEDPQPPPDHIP

[5] = target: T2, CD86 on cells (WIL2-S human B-lymphoblastoid cells; HuCD86-2A2 CHO cells expressing CD86) (human, UniProt P42081 24-329); test: flow cytometry on WIL2-S cells
T2 construct: whole, on cells; also called cell surface CD86
T2 sequence (looked up): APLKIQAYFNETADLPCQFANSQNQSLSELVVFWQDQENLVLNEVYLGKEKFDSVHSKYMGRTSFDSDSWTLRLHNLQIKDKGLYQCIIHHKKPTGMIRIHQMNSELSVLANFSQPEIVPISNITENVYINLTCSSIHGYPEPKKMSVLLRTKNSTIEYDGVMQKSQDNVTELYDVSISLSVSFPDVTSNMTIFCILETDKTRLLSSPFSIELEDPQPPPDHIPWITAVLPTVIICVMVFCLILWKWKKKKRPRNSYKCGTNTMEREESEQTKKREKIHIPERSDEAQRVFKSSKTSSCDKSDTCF
Protocol: Briefly, WIL2-S or HuCD86-2A2 cells were incubated with test molecules containing a CD86 antagonist at concentrations ranging from saturation to background levels. […] After the incubation, cells were washed and a fluorophore (R-phycoerythrin) tagged F(Ab′)₂ antibody specific for the Fc portion of the xceptor molecule, IL10R-Ig fusion protein, or anti-IL10 antibody. The tagged cells were then passed through a flow cytometer and data was analyzed by plotting median fluorescence intensity of each sample.

[6] = target: T3, PD1 ectodomain fused to a C-terminal AviTag, biotinylated (biotinylated on the AviTag with the BirA enzyme); test: SPR (BIAcore T100), biotinylated PD1 captured on neutravidin; bivalent analyte model, first site
T3 construct: also called biotinylated PD1
T3 chain: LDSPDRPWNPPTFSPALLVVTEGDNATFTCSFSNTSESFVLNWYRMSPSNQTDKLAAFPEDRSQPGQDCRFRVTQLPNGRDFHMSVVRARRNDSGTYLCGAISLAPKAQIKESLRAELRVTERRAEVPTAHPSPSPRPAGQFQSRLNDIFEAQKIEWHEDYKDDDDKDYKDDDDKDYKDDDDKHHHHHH
Protocol: (§1) SPR measurements were performed on a BIAcore™ T100 SPR (Pharmacia Biotech AB, Uppsala) using HBS-P+ (GE Healthcare) as a running buffer. […] PDL1/2-containing constructs were injected for 120 seconds, at a flow rate of 30 μl/min, in a series of concentrations from 6 nM to 2 μM. Dissociation was monitored for 1200 seconds, and the surface was regenerated by injecting 50 mM NaOH, 1M NaCl for 30 seconds.
(§2) Data were analyzed using BiaEvaluation for the T100 software (version 2.0.1, GE Healthcare).

[7] = target: T3, PD1 ectodomain fused to a C-terminal …; test: SPR (BIAcore T100), biotinylated PD1 captured on neutravidin; steady-state equilibrium fit
Protocol: as §1, §2

[8] = target: T4, Murine CD86-mIgG (R&D Systems, Inc) (murine, UniProt P42082 24-244, limits assumed); test: SPR (BIAcore T100), murine CD86-mIgG immobilized on CM5; steady-state equilibrium, multiple Rmax fit
T4 construct: also called muCD86
T4 sequence (looked up): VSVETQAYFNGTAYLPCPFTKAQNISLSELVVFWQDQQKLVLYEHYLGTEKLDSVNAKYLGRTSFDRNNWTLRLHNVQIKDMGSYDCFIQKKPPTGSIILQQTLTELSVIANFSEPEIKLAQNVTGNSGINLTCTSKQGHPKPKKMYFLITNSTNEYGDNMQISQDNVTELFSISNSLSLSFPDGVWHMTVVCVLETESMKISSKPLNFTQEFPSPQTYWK
Protocol: (§3) SPR measurements were performed on a BIAcore™ T100 SPR (Pharmacia Biotech AB, Uppsala) using HBS-EP+ (GE Healthcare) as a running buffer. Murine CD86-mIgG (25 μg/mL in 10 mM sodium acetate, pH 4.0, R&D Systems, Inc) was directly immobilized onto a CM5 chip using standard amine coupling chemistry (Biacore Amine Coupling Kit, GE Healthcare), with final immobilization levels of 150, 493, and 746 Ru. CTLA4-containing constructs were injected for 150 seconds, at a flow rate of 10 μl/min, in a series of concentrations from 4 nM to 8 μM. Dissociation was monitored for 600 seconds (CTLA4 constructs) or 1200 seconds (GL1 constructs), and the surface was regenerated by injecting 10 mM glycine, pH 1.7, for 60 seconds. […] Data were analyzed using BiaEvaluation for the T100 software (version 2.0.1, GE Healthcare).

[9] = target: T4, Murine CD86-mIgG (R&D Systems, Inc); test: SPR (BIAcore T100), murine CD86-mIgG immobilized on CM5; bivalent analyte model, second site
Protocol: as §3

[10] = target: T1, CD86-mIgG (Ancell, Inc); test: SPR (BIAcore T100), CD86-mIgG immobilized on CM5; steady-state equilibrium fit
[11] = target: T1, CD86-mIgG (Ancell, Inc); test: SPR (BIAcore T100), CD86-mIgG immobilized on CM5; bivalent analyte model, first site
Protocol: (§4) SPR measurements were performed on a BIAcore™ T100 SPR (Pharmacia Biotech AB, Uppsala) using HBS-EP+ (GE Healthcare) as a running buffer. […] CTLA4-containing constructs were injected for 150 seconds, at a flow rate of 10 μl/min, in a series of concentrations from 4 nM to 10 μM. Dissociation was monitored for 600 seconds, and the surface was either regenerated by injecting 50 mM sodium citrate, 500 mM sodium chloride, pH 5.0, for 60 seconds (wild type CTLA4) or 10 mM glycine, pH 1.7 (L104E A29Y CTLA4). […] Data were analyzed using BiaEvaluation for the T100 software (version 2.0.1, GE Healthcare).

[12] = target: T5, CD80-mIg (Ancell Catalog #510-020) (UniProt P33681 35-242); test: SPR (BIAcore T100), CD80-mIgG immobilized on CM5; steady-state equilibrium fit
T5 construct: Bought reagent; also called CD80-mIgG; sCD80
T5 sequence (looked up): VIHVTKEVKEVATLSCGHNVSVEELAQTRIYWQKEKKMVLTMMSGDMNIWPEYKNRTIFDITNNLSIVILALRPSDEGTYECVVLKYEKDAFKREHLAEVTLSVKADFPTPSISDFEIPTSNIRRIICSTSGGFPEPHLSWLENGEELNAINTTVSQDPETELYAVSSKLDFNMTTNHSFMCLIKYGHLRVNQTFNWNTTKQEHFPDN
Protocol: as §4, with “Surface plasmon resonance (SPR) measurements” for “SPR measurements”, “from 5” for “from 4”, “to 1” for “to 10”, “was” for “was either”, “pH 4.0,” for “pH 5.0,”, “60 seconds.” for “60 seconds (wild type CTLA4) or 10 mM glycine, pH 1.7 (L104E A29Y CTLA4).”

[13] = target: T5, CD80-mIg (Ancell Catalog #510-020); test: SPR (BIAcore T100), CD80-mIgG immobilized on CM5; bivalent analyte model, first site
Protocol: as §4, with “Surface plasmon resonance (SPR) measurements” for “SPR measurements”, “from 5” for “from 4”, “to 1” for “to 10”, “was” for “was either”, “pH 4.0,” for “pH 5.0,”, “60 seconds.” for “60 seconds (wild type CTLA4) or 10 mM glycine, pH 1.7 (L104E A29Y CTLA4).”

[14] = target: T4, Murine CD86-mIgG (R&D Systems, Inc); test: SPR (BIAcore T100), murine CD86-mIgG immobilized on CM5; bivalent analyte model, first site
Protocol: as §3

[15] = target: T5, CD80-mIg (Ancell Catalog #510-020); test: SPR (BIAcore T100), CD80-mIgG immobilized on CM5; bivalent analyte model, second site
Protocol: as §4, with “Surface plasmon resonance (SPR) measurements” for “SPR measurements”, “from 5” for “from 4”, “to 1” for “to 10”, “was” for “was either”, “pH 4.0,” for “pH 5.0,”, “60 seconds.” for “60 seconds (wild type CTLA4) or 10 mM glycine, pH 1.7 (L104E A29Y CTLA4).”

koff [1]: 0.00018 s⁻¹
kon [1]: 94100 M⁻¹ s⁻¹
Kd [2]: 50.6 nM
Second Site ka [3]: 0.0203 s⁻¹
Second Site kd [3]: 0.0722 s⁻¹
Molecule: muIL 10-Ig

Kd [8]: 870 nM
Second Site ka [9]: 0.00026 s⁻¹
Second Site kd [9]: 0.00193 s⁻¹
Kd [10]: 670 nM
koff [11]: 0.0091 s⁻¹
kon [11]: 45100 M⁻¹ s⁻¹
Kd [12]: 19.1 nM
koff [13]: 0.00235 s⁻¹
kon [13]: 90800 M⁻¹ s⁻¹
koff [14]: 0.0418 s⁻¹
kon [14]: 32100 M⁻¹ s⁻¹
Second Site ka [15]: 0.00406 s⁻¹
Second Site kd [15]: 0.00706 s⁻¹
B3: xceptor including a CTLA4 ectodomain with the L104E A29Y mutations and an IL10 domain (Fc fusion)
chain: MHVAQPAVVLASSRGIASFVCEYASPGKYTEVRVTVLRQADSQVTEVCAATYMMGNELTFLDDSICTGTSSGNQVNLTIQGLRAMDTGLYICKVELMYPPPYYEGIGNGTQIYVIDPEPCPDSDLEPKSSDKTHTCPPCPAPEAAGAPSVFLFPPKPKDTLMISRTPEVTCVVVDVSHEDPEVKFNWYVDGVEVHNAKTKPREEQYNSTYRVVSVLTVLHQDWLNGKAYACAVSNKALPAPIEKTISKAKGQPREPQVYTLPPSRDELTKNQVSLTCLVKGFYPSDIAVEWESNGQPENNYKTTPPVLDSDGSFFLYSKLTVDKSRWQQGNVFSCSVMHEALHNHYTQKSLSLSPGQRHNNSSLNTGTQMAGHSPNSSPGQGTQSENSCTHFPGNLPNMLRDLRDAFSRVKTFFQMKDQLDNLLLKESLLEDFKGYLGCQALSEMIQFYLEEVMPQAENQDPDAKAHVNSLGENLKTLRLRLRRCHRFLPCENKSKAVEQVKNAFNKLQEKGIYKAMSEFDIFINYIEAYMTMKIRN
notes: the mutations are in the entry

The next lines start with the molecule.

B1: FUN1::IL10 xceptor (Fc fusion)
chain: EVQLQQSGPELEKPGASVKISCKASGYSFTDYNMNWVKQSNGKSLEWIGNIDPYYGGTSYNQKFKGKATLTVDKSSSTAYMQLNSLTSEDSAVYFCARWDYRYDDGRAYYVMDFWGQGTSVTVSSGGGGSGGGGSGGGGSGGGGSELQMTQSPSSLAASAGEKVTMSCKSSQSVLYSSNQKNYLAWYQQKPGQSPKLLIYWASTRESGVPDRFTGSGSGTHFTLTVSSVQAEDLAVYYCHQYLYSWTFGGGTNLEIKRLEPKSSDKTHTCPPCPAPEAAGAPSVFLFPPKPKDTLMISRTPEVTCVVVDVSHEDPEVKFNWYVDGVEVHNAKTKPREEQYNSTYRVVSVLTVLHQDWLNGKAYACAVSNKALPAPIEKTISKAKGQPREPQVYTLPPSRDELTKNQVSLTCLVKGFYPSDIAVEWESNGQPENNYKTTPPVLDSDGSFFLYSKLTVDKSRWQQGNVFSCSVMHEALHNHYTQKSLSLSPGNSLFNQEVQIPLTESYSPNSSPGQGTQSENSCTHFPGNLPNMLRDLRDAFSRVKTFFQMKDQLDNLLLKESLLEDFKGYLGCQALSEMIQFYLEEVMPQAENQDPDIKAHVNSLGENLKTLRLRLRRCHRFLPCENKSKAVEQVKNAFNKLQEKGIYKAMSEFDIFINYIEAYMTMKIRN
notes: anti-CD86 FUN1 scFv - Fc - IL10
binding result [4]: binds
binding result [5]: binds

B2: PDL2-Fc (Fc fusion)
chain: LFTVTVPKELYIIEHGSNVTLECNFDTGSHVNLGAITASLQKVENDTSPHRERATLLEEQLPLGKASFHIPQVQVRDEGQYQCIIIYGVAWDYKYLTLKVKASYRKINTHILKVPETDEVELTCQATGYPLAEVSWPNVSVPANTSHSRTPEGLYQVTSVLRLKPPPGRNFSCVFWNTHVRELTLASIDLQSQMEPRTHPTLEPKSSDKTHTCPPCPAPEAAGAPSVFLFPPKPKDTLMISRTPEVTCVVVDVSHEDPEVKFNWYVDGVEVHNAKTKPREEQYNSTYRVVSVLTVLHQDWLNGKAYACAVSNKALPAPIEKTISKAKGQPREPQVYTLPPSRDELTKNQVSLTCLVKGFYPSDIAVEWESNGQPENNYKTTPPVLDSDGSFFLYSKLTVDKSRWQQGNVFSCSVMHEALHNHYTQKSLSLSPG
koff [6]: 0.00724 s⁻¹
kon [6]: 165000 M⁻¹ s⁻¹
Kd [7]: 42 nM
